In publication PMC6219552, “β-Glucuronidases of opportunistic bacteria are the major contributors to xenobiotic-induced toxicity in the gut” (Scientific Reports, 2018):

Columns and labels:
[1] = biological target: Bifidobacterium dentium β-D-glucuronidase, catalytically inactive mutant E479A (Bifidobacterium dentium); assay: crystal structure; crystals of the purified GUS alone, soaked with UIFG (RgGUS, BfGUS) or with compound 10 (BifdGUS E479A); oligomer as seen in the crystal structures
[2] = biological target: the molecule itself; assay: as above

Bifidobacterium dentium β-D-glucuronidase, catalytically inactive mutant E479A (enzyme)
stoichiometry N [1]: 4

B1: Ruminococcus gnavus β-D-glucuronidase (enzyme)
chain: MLEYSELYPIQNEYRMMQSLDGMWKFQFDPEEIGKKSGWENGLPAPVSMPVPSSFADFFTDHKERDYCGDFWYETEFYLPAEWRNKKIWLRFGSITHRGTVYCNGMEITSHEGGFLPVLADISTVAKPGQVNQVVVKINNELNETSLPCGATKILNNGRKLAKPYFDFFNYSGLQRSVWVIALPEESVKDYSVDYELCGTDALVKYEVVTTGEHPVIVRLLDAEGELVAETEGKEGILQVANARLWEVRNAYLYQIVILITDGNGVLDEYREKIGIRTVRIEGTKILLNDRPVYLKGFGKHEDFPILGRGFHWGIVKRDFECLKWTNANCFRTSHYPYAEEWYQFADEEGFLIIDEVPAVGMMRSTRNFVAAGSGNYTYFFEALTVPELLKSHIADTEEMITRDKNHPSVIAWSLFNEPETITDYAYEYFKEVFAAAETYDFQSRPMTGAFEKNSKPELCKCYPLCDFICLNRYYGWYISGGPEIEEAEELFRDEMDRWKAKELNVPFVFTEFGTDTMAGLHKLPSIMWSEEYQKEYLEMNFRVFDSYEFVQGELAWNFADFQTTEGIMRVDGNHKGVFTRDRQPKAAAVVFKDRWEKKNELF
stoichiometry N [2]: 4

B2: Bacteroides fragilis β-D-glucuronidase (enzyme)
chain: RQDILLNNNWNFRFSHQVQGDTRRVDLPHTWNAQDALAGKIDYKRGIGNYEKALYIRPEWKGKRLFLRFDGVNSIADVFINRKHIGEHRGGYGAFIFEITDLVKYGEKNSVLVRANNGEQLDIMPLVGDFNFYGGIYRDVHLLITDETCISPLDYASPGVYLVQEVVSPQEAKVCAKVNLSNRAADGTAELQVLVTDGTKVICKESRNVSLKQGADILEQLPLLIQKPRLWNGCEDPFMYQVSISLHKDGKQIDSVTQPLGLRYYHTDPDKGFFLNGKHLPLHGVCRHQDRAEVGNALRPQHHEEDVALMREMGVNAIRLAHYPQATYMYDLMDKHGIVTWAEIPFVGPGGYADKGFVDQASFRENGKQQLIELIRQHYNHPSICFWGLFNELKEVGDNPVEYVKELNALAKQEDPTRPTTSASNQDGNLNFITENIAWNRYDGWYGSTPKTLATFLDRTHKKHPELRIGISEYGAGASIYHQQDSLKQPSASGWWHPENWQTYYHMENWKIIAERPFVWGTFVWNMFDFGAAHRTEGDRPGINDKGLVTFDRKVRKDAFYFYKANWNKQEPMIYLAEKRCRLRYQPEQTFMAFTTAPEAELFVNGVSCGKQKADTYSTVVWKNVKLTSGENIIRVTTPGKKPLTDEVTVEYKEDR
notes: β-D-glucuronidase (GUS) of Bacteroides fragilis, codon-optimized gene bought from GenScript, in pET15b; apo structure PDB 3CMG named as search model; Crystallised and soaked with UIFG; Its PDB code is one of 5Z18, 5Z19, 5Z1A, 5Z1B; also called BfGUS
stoichiometry N [2]: 4
